Data published in patent US20080292632A1 (US Dept. of Health and Human Services, published 2008).

How the values were obtained:
Assay in all cases: IRTA Fc-fusion
[1] = molecular target: T1, IRTA5 extracellular domain-Fc fusion protein (human, UniProt Q96LA6 17-307)
T1 construct: Whole entry named; also called IRTA5-Fc; IRTA5 (Fc-fusion); not shown: human IgG1 hinge and Fc
T1 sequence: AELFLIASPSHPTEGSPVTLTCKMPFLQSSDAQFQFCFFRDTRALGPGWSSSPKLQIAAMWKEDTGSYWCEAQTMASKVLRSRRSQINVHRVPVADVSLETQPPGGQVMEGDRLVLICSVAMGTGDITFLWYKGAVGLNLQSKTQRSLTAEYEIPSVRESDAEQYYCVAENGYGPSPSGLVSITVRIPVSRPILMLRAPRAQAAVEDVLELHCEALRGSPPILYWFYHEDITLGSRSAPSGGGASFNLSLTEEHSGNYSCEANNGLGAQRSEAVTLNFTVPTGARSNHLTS
Procedure: (§1) Each Fc-fusion protein indicated on the top of the column was captured on ELISA plates using secondary antibody (goat anti-human IgG). After washing, 100 ng/50 μl/well of MAbs were added, followed by HRP-labeled goat anti-mouse IgG and TMBZ substrate. The signals in ELISA were normalized for the amounts of each Fc-fusion protein on the plates using HRP-goat anti-human Fc. The controls are MAbs 9E10 (anti-myc tag, IgG1), BerH2 (anti-CD30, IgG1), T408 (anti-CD30, IgG2a), T420 (anti-CD30, IgG2b) and HRP-goat anti-human Fc (1/2400 dilution). […] Two days after transfection, the cells were harvested and incubated with 200 ng/100 μl of each MAb, followed by PE-conjugated goat anti-mouse IgG F(ab′)2. […] In the positive control panels, the MAbs cross-reactive to other IRTAs were used. They are F26 (anti-IRTA1 and anti-IRTA2, IgG2b), F109 (anti-IRTA3, IgG2b), F47 (anti-IRTA4, IgG2a), and F69 (anti-IRTA5, IgG2a). BerH2 (anti-CD30, IgG1) was also used. “+” indicates more than 1.5-fold than that of the control; “++” indicates more than 10-fold mean fluorescence intensity than that of the negative control.
(§2) ELISA. In a typical indirect ELISA for the screening of hybridomas, microtiter plates (MaxiSorp; Nalge Nunc, Rochester, N.Y.) were coated with 100 ng/50 μl/well of goat anti-human IgG in phosphate buffered saline (PBS) for 2 hours at room temperature. Next, 50 ng/100 μl/well of IRTA2-Fc in blocking buffer (25% DMEM, 5% FBS, 25 mM HEPES, 0.5% bovine serum albumin, 0.1% sodium azide in PBS) was added to each well and incubated for 2 hours at room temperature. After washing with PBS containing 0.05% Tween 20, 50 μl of the hybridoma supernatants were added and incubated for 2 hours at room temperature. After washing, the bound MAbs were detected by a 2-hour incubation with horseradish peroxidase (HRP)-labeled goat anti-mouse IgG (Jackson ImmunoResearch, Grove, Pa.) followed by tetramethylbenzidine (TMB) substrate kit (Pierce, Rockford, Ill.). In some experiments, other IRTA-Fc fusion proteins were used instead of IRTA2-Fc.

[2] = molecular target: T2, IRTA4 extracellular domain-Fc fusion protein (human, UniProt Q96LA5 20-401)
T2 construct: Whole entry named; also called IRTA4-Fc; IRTA4 (Fc-fusion); not shown: human IgG1 hinge and Fc
T2 sequence: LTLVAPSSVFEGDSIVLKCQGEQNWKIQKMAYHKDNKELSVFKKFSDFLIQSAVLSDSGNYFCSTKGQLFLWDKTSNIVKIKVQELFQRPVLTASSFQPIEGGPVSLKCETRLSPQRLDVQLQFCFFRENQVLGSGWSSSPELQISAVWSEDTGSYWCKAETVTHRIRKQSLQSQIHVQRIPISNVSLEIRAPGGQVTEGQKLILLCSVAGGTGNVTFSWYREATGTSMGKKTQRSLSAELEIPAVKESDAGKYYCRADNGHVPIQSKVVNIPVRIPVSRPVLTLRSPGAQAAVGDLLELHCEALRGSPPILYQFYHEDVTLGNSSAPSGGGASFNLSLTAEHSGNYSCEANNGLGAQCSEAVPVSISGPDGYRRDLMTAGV
Procedure: as §1, §2

[3] = molecular target: T3, IRTA1 extracellular domain-Fc fusion protein (human, UniProt Q96PJ5 20-387)
T3 construct: Whole entry named; also called IRTA1-Fc; IRTA1 (Fc-fusion); not shown: human IgG1 hinge and Fc
T3 sequence: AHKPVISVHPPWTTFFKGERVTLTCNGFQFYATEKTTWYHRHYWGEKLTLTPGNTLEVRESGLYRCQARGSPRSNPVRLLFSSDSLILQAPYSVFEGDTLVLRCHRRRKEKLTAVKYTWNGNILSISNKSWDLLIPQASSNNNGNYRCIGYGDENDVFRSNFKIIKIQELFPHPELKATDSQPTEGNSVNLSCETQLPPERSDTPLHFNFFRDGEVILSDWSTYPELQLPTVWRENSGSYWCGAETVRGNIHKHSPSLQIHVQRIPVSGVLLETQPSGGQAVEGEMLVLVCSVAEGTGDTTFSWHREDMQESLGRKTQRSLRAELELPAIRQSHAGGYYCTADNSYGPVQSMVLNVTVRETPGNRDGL
Procedure: as §1, §2

[4] = molecular target: T4, IRTA3 extracellular domain-Fc fusion protein (human, UniProt Q96P31 18-573)
T4 construct: Whole entry named; also called IRTA3-Fc; IRTA3 (Fc-fusion); not shown: human IgG1 hinge and Fc
T4 sequence: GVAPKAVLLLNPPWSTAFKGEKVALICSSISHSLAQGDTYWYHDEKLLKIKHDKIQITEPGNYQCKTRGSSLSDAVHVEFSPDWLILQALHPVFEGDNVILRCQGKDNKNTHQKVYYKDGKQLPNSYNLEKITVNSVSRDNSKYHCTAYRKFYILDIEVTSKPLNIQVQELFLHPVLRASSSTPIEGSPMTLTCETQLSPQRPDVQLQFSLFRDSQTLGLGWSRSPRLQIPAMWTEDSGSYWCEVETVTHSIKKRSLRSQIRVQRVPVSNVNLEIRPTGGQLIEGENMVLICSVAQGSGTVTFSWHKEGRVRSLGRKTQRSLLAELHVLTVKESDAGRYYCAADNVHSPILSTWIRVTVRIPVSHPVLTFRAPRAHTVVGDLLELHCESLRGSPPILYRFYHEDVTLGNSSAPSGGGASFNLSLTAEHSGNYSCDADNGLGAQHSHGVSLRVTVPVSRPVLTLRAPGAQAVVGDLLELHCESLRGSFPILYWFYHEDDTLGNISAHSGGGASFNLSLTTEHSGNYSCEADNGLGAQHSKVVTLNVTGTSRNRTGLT
Procedure: as §1, §2

Measured: binding result

B1: F25 (antibody, IgG2a, V domains shown)
VH: EVQLQQSGPELVKPGTSVKMSCKASGYSFTGYFMNWMMQNHGKSLEWIGRINLYNGDTFYNQKFKDKATLTVDKSSNTVHMEFRSLASEDSAVYYCASSLYYFDYWGQGTTFTVSS
VL: DIVMTQSHKFMSTSVGDRVNITCKASQDVGTNVAWYQQKPGQSPKLLIYWASTRQTGVPDRFTGSGSGTDFTLTISNVQSEDLSDYFCQQYSSYPLTFGAGTKLELKR
notes: mouse hybridoma MAb, IgG2a, kappa; also called MAb F25; biotin-MAb F25
no binding: [1] | [2] | [3] | [4]
